From patent publication US20220289859A1 come the findings set out here.

The experiment concerns the target FcγRIIIa (UniProt P08637). The experiment is described as follows: SPR as in Example 4; glyco-enriched samples of belantamab.

FcγRIIIa, sequence (P08637 17-208 limits assumed): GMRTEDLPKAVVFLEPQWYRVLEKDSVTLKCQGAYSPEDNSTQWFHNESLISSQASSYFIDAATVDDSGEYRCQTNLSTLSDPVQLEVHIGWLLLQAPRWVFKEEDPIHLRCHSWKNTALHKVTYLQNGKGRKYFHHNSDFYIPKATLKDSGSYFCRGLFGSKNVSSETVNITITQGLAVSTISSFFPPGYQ

The substance “belantamab deglycosylated with PNGaseF (antibody)” registered a Specific FcγRIIIa binding activity of 8%.
